# Test system: Saccharomyces cerevisiae
# Test: transcriptional activation domain activity (GFP:mCherry ratio, weighted mean of sorted bins, harmonized to initial dataset scale) (arbitrary fluorescence ratio units); higher = stronger transcriptional activation
# Conditions: beta-estradiol 1 µM; induction time 4 h
# Protocol: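 53-aa protein tiles (fungal proteins plus yeast TF control tiles) fused C-terminally to a DBD-estrogen-binding domain-mCherry synthetic TF, integrated in S. cerevisiae (URA3 locus) with a GFP reporter. Cells were induced with 1 uM beta-estradiol for 4 h at 30 C, FACS-sorted into 8 bins by GFP:mCherry ratio and barcodes sequenced. Activity is the read-weighted mean bin fluorescence (GFP:mCherry), averaged over barcodes (median 12); tiles under 50 reads were discarded. New active-learning values were harmonized by linear fit onto the scale of the initial (Hummel et al.) dataset. The assay saturates at low and high signal.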
row,Sequence,transcriptional activation domain activity
1,LLLPLLLPVLHIFPFLIDFLLPVLDLLLALLVLLPALLDLLLVLLVLLPPLLP,56100
2,KQTRAGQRTRFRAVVIVGDSNGHVGLGVKTSKEVATAIRAAIVIAKLNVIPVR,64200
3,GFRFAVAVIDNIQTMKHETMGSYVTLIMNMHITQAVAVWFYSCIFTFKLGQAI,62500
4,YAEWLIEPEQNNGTWVADVLWPAINLDLQWISLHWNQSSWDLWWPPVWGGSYW,53200
5,MILRAFFLLTVYFVCSPFFFLIIYLLFYDRPDSTLSWIWIWIHTFLPSLLFPS,42500
6,LIPIVVLNMYSLLMLLFIRGWFSYLIAVVSISGVLVLHMLYFLLQWRLKYILW,65600
7,SKDLTRLTLISIMLEKCEGDYSAACVEQYLTVLLKFAVLAVVSDQTLHLSILA,52000
8,MRLVYFCAGIYFLVADLVFSLFLFSFSSLLTLFFSPFFSLSLGLTLLEIQFTF,51800
9,CFSLCFSLCFPFAFPLLFPFFPLLFPLLFPLLSLCFSLCFSLLPFPLELPFLF,37100
10,PGEVSEAEANGDAPKVEAAAKPKKKKKKAARKPKTKEEDGAPAAAPTEEAAPA,10100
11,MDSQDAGRVSSQGQAVKEKQRSRTGCRTCKSRKVKCDETRGGCRNCERLNLPC,14700
12,MNHTSRFFSPFFLFSLFLSFPSFLLPCFLLLFLFLPFLPPSLSLLSLILYKFW,31900
13,ADEYIFHLTHGTLCICEHQGEENVVVVNVKSIISVVAMVPFPFIVRGCNNQYF,32600
14,WATVYLWTCHYQLLVYICTLIIIETRGFLKLGYVFLITLLLLSCIPHILLHVI,30300
15,LDFLDLWTFWPWTFWPWTFWTVGLFGLLALDLLALDFLDLWTFWPWTFWPWTF,60400
16,WPFDESIERNFSTTATAATGESKFDINDNCNRINSKSYSKTNSMNGNGMNNSN,28400
17,MFYNFFFFIIIYLCFFARMFLVVSRIVMLLAFLYSCLIPLLCGLVFFCIRFKS,67300

row,Sequence,transcriptional activation domain activity
1,GLTLLCLRRILQLWAGSDQLSELVSYVPVHLRVLAMRDAAVFAPLSRKVLQAL,57700
2,GRKILNVFALVFFFINLFLFCLFLALTMCRYAMFPRLWGLMLRDPVQSLYLGC,46700
3,MVFGGIFFQLRGCAVGWSLGYSVSCFFLFFLFVFYAVSFLVWSGCGFLFSFFF,62700
4,NTDTYILFLFPFFWASNWFYTYQQNCYQLFYFNLRGRTFTNLWYWLAQIFGAL,72900
5,LKNLMATIGLTRKVLFTGRQLEFYLAAVKLLATKDVFVKWTAIAKNFFMIVWV,55500
6,EGSSSGEEESSEEEEAAPRREDAAAARQKAADEMIEEQIKRDLAARAAGKKHW,30100
7,GSRRPRKDKSHKKKDRSSGDGTEKERKHRDRGDKGDRERAKSRERGEKGKRDR,20500
8,AVWGTGYGKYFVLVLCLFAGINITSCWVLIKYLGGLTWCTLFFKNRLLWINFV,60400
9,HFILTYLLLFMSVPFEFVMASFEFFHLIHCLKFPNTFYSFFFSFVFFLRHFVF,56700
10,GTDDAEAREKTGAADPSADPASRKRRADDGEGDARKRIRTEGGSASAAAASSS,14100
11,SHDTFPLRPILVKLLCHAMLMKGVDPVSIIEKQPMTYGFVADILLPLVLDLPS,62200
12,LLFFFFLFLSFSSLLHVWGLCLPISSFVGLWSLYLLFSPIPIVLPRVKLLFLA,60200
13,MHYIGGYLVLFYFFLFLFFFYFFFFSPFFYFLPFLFFLFFSIPYFFFFAPFVS,39700
14,MDATAKKAVEQPKRRACDECRGRKLACSKEVDGCARCKREGIKCVYSAQKRMG,10500
15,GVCLKVGITKPKKPNSAERKTARVRLSTGRVVTAYIPGEGHNVQQHSVVLVRG,39500
16,MCIICVLYVYYMYICFVCVHCICFYIFVHRFCLSVCMFFFFFFFFVCFINIIL,69900
17,CMLRFVIWLCSKWVPYRSGVWEEFKFLLDHPRRCFTLLFPSGANWWLFWVLIL,60600

# — the supplement of paper PMC12636428
